One substance from US20180031579A1 can be followed below.

The target of this assay is Growth differentiation factor 11 (GDF11) (human) (UniProt O95390). Put plainly: cell-based or functional assay.
Sequence of UniProt O95390 (O95390 299-407 limits assumed): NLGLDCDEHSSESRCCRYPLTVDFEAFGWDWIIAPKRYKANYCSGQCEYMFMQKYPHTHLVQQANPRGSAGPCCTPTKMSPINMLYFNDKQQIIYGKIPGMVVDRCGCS

On to “anti-human GDF11 antibody ab71347 (Abcam)”, for which the apoptosis in primary AML blasts, subjects 5 and 6 is 50 % apoptosis.
